Patent US8114412B2, “T. cruzi-derived neurotrophic agents and methods of use therefor” (priority 1999, dated 2012)
Entries after “also recorded” stand apart in the source; their conditions may differ.

Experiments:
[1] = test system: human bladder carcinoma T-24 cell line; experiment: IL-6 secretion by T-24 carcinoma cells (ELISA); assay type: cell-based
Experimental: Primary cultures of human intestinal microvascular endothelial cells (HIMEC) isolated from normal jejunal mucosa/submucosal tissue were prepared as described (Strong et al., Gastroenterology 114: 1244-1256 (1998)). The HIMEC were cultured in fibronectin-coated plasticware in MCDB medium (Sigma) supplemented with 20% FBS, 90 μg/ml heparin and 50 μg/ml endothelial cell growth factor (Sigma). T-24 cells (ATCC Accession No. HTB-4) were cultured in M199 medium supplemented with 10% FBS. PBMC were purified by Ficoll-Paque gradient as described (Current Protocols in Immunology, pp 7.1.1-7.1.2). Vero cells (ATCC Accession No. CCL-81) were grown in RPMI medium with 5% Nu serum and infected with the Silvio X-10/4 of T. cruzi as described previously (Chuenkova et al., J. Exp. Med. 181: 1693-1703, (1995)).
Endothelial cells and T-24 cells were plated on 24-well plates at a density of 1×10^3 cells/well, while peripheral blood mononuclear cells (PBMC) were plated in the similar wells at 1×10^6/well. Triplicat cultures of cells were incubated test agents for a predetermined amount of time. […] Cytokines and chemokines released in the culture supernatants were measured by ELISA assay following the instructions of the manufacturer (Endogen). The cytokines tested were IL-1β, IL-4, IL-8, IL-10, IL-12, IFN-γ, TNF-α, and the chemokines RANTES and MCP-1. Negative controls were cells incubated in medium containing polymixin B at 10 μg/ml, and positive controls were cells incubated with bacterial LPS at the low ng/ml range (for PBMC or HIMEC) or in the μg/ml range for carcinoma T-24 cells. In some experiments, IL-1β, or TNFα were used as positive control for cytokine release.

PC12 cells = experiment: Trophic factor withdrawal-induced apoptosis of PC12 cells (DAPI/TUNEL); assay type: cell-based, rat
Excerpt: PC12 cells were obtained from ATCC (Manassas, Va. (Accession No. CRL-1721)) and cultured on collagen-coated dishes in RPMI 1640 supplemented with 10% horse serum and 5% fetal bovine serum (Greene, L. A. and Tishler, A. S., Proc. Natl. Acad. Sci. USA, 73: 2424-2428 (1976)). For differentiation and survival experiments, cells were washed three times in serum-free RPMI/0.2% BSA, plated in the same medium in collagen-coated plastic dishes at 2×10^5/ml, without and with growth factors, TS, recombinant proteins, synthetic peptides, for the time and concentrations indicated in the Figures.
Cell staining with 4,6-diamino-2-phenylindole (DAPI). Cells were fixed with 4% formaldehyde in PBS for 5 minutes, washed with PBS, stained with 10 μg/ml DAPI (Sigma) for 2 minutes, washed with PBS, and visualized under UV light using a fluorescent microscope. About 300-400 cells were examined under the microscope to determine the percentage of apoptotic cells.
Cell DNA nick end labeling (TUNEL) (Gavrieli, Y., et al., J. Cell. Biol. 119: 493-501 (1992)) assay was performed using a kit purchased from Boehringer Mannheim as described by the manufacturer.
Protection against apoptosis of PC12 cells in serum-free medium containing a test agent (agent N)(e.g., protection induced by TS, TS fragments, NGF or other growth factors), was calculated by the formula: 100%-[(apoptosis(%) of cells kept in RPMI containing test agent N÷apoptosis (%) of cells kept in RPMI)×100%]. Testing the effect of wortmannin (Sigma) and LY294002 (Sigma) in inhibiting the neuroprotection of TS was performed following the protocol described by others (Yao and Cooper, Science, 267:2003-2006 (1995); D'Mello et al., J. Neurosci 17:1548-1560 (1997)). In brief, PC12 cells were switched from growth medium to RPMI without and with TS or various other growth factors. After 24 hr, wortmannin and LY294002 were added to the cultures. After another 24 hrs, cells were examined for apoptosis by the DAPI assay, as above.

Akt kinase in PC12 cells = experiment: Immunodetection of activated Akt (Ser 473) in PC12 cells; assay type: cell-based, rat
Experimental: PC12 cells were deprived of serum for 24-48 hours, stimulated with TS, TS-F or LTR for 2, 5 or 10 minutes and immediately lysed with 2% SDS. In studies using the PI-3 kinase inhibitor, LY294002 (LY), cells were pre-treated with the inhibitor (1 μM) for 30 min prior to the addition of TS-F or TS. The proteins in the cell lysate were separated in SDS-10% polyacrylamide gels, transferred to nitrocellulose membrane (Bio-Rad) and the phosphorylated form of protein kinase Akt was detected with phospho-Akt (Ser 473) antibody (New England BioLabs, Beverly, Mass.), followed by alkaline phosphatase-conjugated secondary antibody (Promega, Madison, Wis.). Bands corresponding to phospho-Akt (60 kDa) were quantified using a scanning densitometer (Bio-Rad).

human Schwann cells = experiment: Serum withdrawal-induced apoptosis of immortalized human Schwann cells (DAPI); assay type: cell-based
N18 cells = experiment: Neurite outgrowth assay in N18 cells; assay type: cell-based; settings: immobilized proteins coated at 500 μg/ml, 17 hours (FIG. 3A)
Experimental: FIG. 3A is a graph showing that neurite outgrowth in N18 cells is induced by immobilized laminin (Ln), immobilized TS and immobilized fragments of TS. Proteins were immobilized by incubating plates which contained wells filled with solutions of the proteins (protein concentration was 500 μg/ml) at 4° C. overnight. The protein solutions were removed and the plates were further incubated with 1% BSA at room temperature for one hour. N18 cells were cultured in the coated wells in serum-free RPMI-1640/0.2% BSA for 17 hours, and neurite outgrowth was measured by phase-contrast microscopy. […] Ln, laminin; TS, purified T. cruzi trans-sialidase; 7F, recombinant TS from clone 7F; 19Y, recombinant TS from clone 19Y; TS-F, recombinant fragment consisting of amino acid residues 33-666 of TS (SEQ ID NO:2); TS-CC-47, recombinant fragment consisting of amino acid residues 79-478 of TS (SEQ ID NO:2); TS-Cat-47, recombinant fragment consisting of amino acid residues 79-415 of TS (SEQ ID NO:2); BSA, bovine serum albumin.
96-well microtiter plates were coated overnight at 4° C. with the TS or peptides or fragments thereof, or with control proteins laminin (Ln) or bovine serum albumin (BSA) at 500 μg/ml. After removing the compounds, the plates were further incubated with 1% BSA for 1 hour at room temperature and immediately used as substratum for PC12 or N18 (Prasad, K. N., Biol Rev Camb Philos Soc, 66:431-451 (1991)) cells in serum-free RPMI/0.2% BSA. Neurite outgrowth was measured using a phase-contrast microscope 17 hours later.

B1: TS: T. cruzi trans-sialidase purified by immuno-affinity chromatography from supernatants of infected Vero cells (SEQ ID NO:2, SEQ ID NO:34) (protein, listed as Trypanosoma cruzi)
chain: MVAIADARYETSSENSLIDTVAKYSVDDGETWETQIAIKNSRVSSVSRVVDPTVIVKGNKLYVLVGSYYSSRSYWSSHGDARDWDILLAVGEVTKSTAGGKITASIKWGSPVSLKKFFPAEMEGMHTNQFLGGAGVAIVASNGNLVYPVQVTNKRKQVFSKIFYSEDDGKTWKFGKGRSDFGCSEPVALEWEGKLIINTRVDWKRRLVYESSDMEKPWVEAVGTVSRVWGPSPKSNQPGSQTSFTAVTIEGMRVMLFTHPLNFKGRCVRDRLNLWLTDNQRIYNVGQVSIGDENSAYSSVLYKDDKLYCLHEINTDEVYSLVFARLVGELRIIKSVLRSWKNWTATCPAFAPLLIQPLRRQRVVVVPLSPRLVLLAFCRQRLPKRMGGSYRCVNASTANAERVRNGLKFAGVGGGALWPVSQQGQNQRYRFANHAFTLVASVTIHEAPRAASPLLGASLDSSGGKKLLGLSYDEKHQWQPIYGSTPVTPTGSWETGKRYHLVLTMANKIGSVYIDGELLEGSGQTVVPDGRTPDISHFYVGGYKRSDMPTISHVTVNNVLLYNRRQLNTEEIRTLFLSQDLIGTEAHMDSSSDSSAHSTPSTPADSSAHSTPSTPVDSSAHSTPSTPADSSAHGTPSTPVDSSAHGTPSTPADSSAHGTPSTPVDSSAHSTPSTPVDSSAHSTPSTPVDSSAHGAPSTPADSSAHGTPSTPVDSSAHGTPSTPADSSAHSTPSTPADSSAHSTPSTPADSSAHSTPSTPVDSSAHGTPSTPADSSAHSTPSTPADSSAHGTPSTPVDSSAHSTPSTPVDSSAHGTPSTPVDSSAHSTPSTPVDSSAHGTPSTPVDSSAHSTPSTPADSSAHSTPSTPADSSAHGTPSTPVDSSAHSTPSTPADSSAHSTPSTPVDSSAHSTPSTPADSSAHGTPSTPVDSSAHGTPSTPADSSAHSTPSTPADSSAHSTPSTPADSSAHSTPSTPVDSSAHSTPSTPADSSAHSTPSTPADSSAHSTPSTPADSSAHSTPSTPVDSSAHSTPSTPADSSAHGTPSTPADSSAHSTPSTPVDSSAHSTPSTPADSSAHGTPSTPADSSAHSTPSTPADSSAHGTPSTPADSSAHSTPSTPAGSSANGTVLILPDGAALSTFSGGGLLLCACALLLHVFFMAVF
- IL-6 secretion by T-24 cells ([1]; 24 hours culture): stimulated IL-6 secretion
- bacterial LPS concentration inducing the same IL-6 in T-24 cells ([1]; TS 1 μg/ml, 24 hr): 0.75 µg/mL
- PC12 cells protected from death (PC12 cells; TS 62 pM (equivalent to 12.5 ng/ml)): 45%
- survival of PC12 cells grown in serum-free medium (PC12 cells; TS 2.5 ng/ml alone or with CNTF 50 ng/ml or LIF 0.5 ng/ml): 13%
- PC12 cells protected from apoptotic death (PC12 cells; TS 2.5 ng/ml, NGF 0.5 ng/ml, alone or co-administered at the same concentrations): 15%
- potency relative to NGF in preventing apoptosis (PC12 cells; molar basis): more potent on a molar basis; also recorded: at concentrations lower than those required by nerve growth factor; also recorded: more effective on a molar base
- protection of PC12 cells from apoptosis induced by trophic factor withdrawal (PC12 cells; serum-free RPMI-1640/0.2% BSA, 17 hours, DAPI or TUNEL): effectively protected; also recorded: inhibits trophic factor withdrawal-induced apoptosis; also recorded: protects PC12 cells from apoptosis induced by trophic factor withdrawal in a dose dependent manner; also recorded: protected PC12 cells from apoptosis
- duration of protection of PC12 cells by a single dose (PC12 cells; time course, TS 0.5 nM (FIG. 5B)): up to several days; also recorded: delayed trophic factor withdrawal-induced apoptotic death
- phosphorylation/activation of Akt kinase in PC12 cells (Akt kinase in PC12 cells; 100 ng/ml, 2, 5 or 10 minutes, phospho-Akt (Ser 473) antibody): becomes activated; also recorded: induces serine phosphorylation of Akt kinase
- exposure time after which Akt becomes activated (Akt kinase in PC12 cells; TS 100 ng/ml): 2 to 5 min
- dose showing efficacy as trophic factor for Schwann cells (human Schwann cells): ≥ 0.5 nM
- inhibition of serum withdrawal-induced apoptosis of human Schwann cells (human Schwann cells; serum-free DMEM, 24-72 hours, DAPI): effectively inhibited; also recorded: dose-dependent inhibition
- neurite outgrowth in N18 cells (N18 cells): induced neurite outgrowth
